Assay results from the supplement of paper PMC6755084.

B1: F1*; the commonest letter at each place (parent)
chain: GAGACCGCAACTGAAAAGTTGTTATCACTTGTCGTAAGACACTTTGGATGGGTTGAAGTTCTGCACGTAGAAGCAAAAGGC

Variants of: B1
Assay: fraction ligated after 30 min (ligated reads / total reads); higher = more ligase activity
Details: with F1*sub RNA substrate (template-directed ligation), 42 °C
How it was run: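 The ligase ribozyme variants were produced by PCR amplification of oligo-pool templates, T7 transcription and purification on gel. Their ligated and unligated forms were gel-separated, then reverse transcribed with barcoded primers before MiSeq sequencing. Core bases were filtered at a quality of ≥20, and fraction ligated per variant was ligated reads over total reads.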

In order of falling fraction ligated:
1. A27T C33T  0.867
2. A27G  0.852
3. C28G C42G  0.851
4. A27G T35A  0.847
5. A27G C33G  0.846
6. A27G T30G  0.846
7. A27T C33A  0.84
8. A27T T30G  0.84
9. A27G T35G  0.839
10. A27G T30A  0.839
11. A27T C33G  0.838
12. A27G A41T  0.837
13. C28A T32A  0.836
14. C28G G31T  0.833
15. A27G G34A  0.831
16. C28A G46A  0.829
17. C28A C33T  0.829
18. A27T C28A  0.829
19. A27G C33T  0.828
20. A27G T32G  0.827
21. A27G C42A  0.827
22. A27G A36T  0.826
23. C28A C40G  0.824
24. C28G C42A  0.824
25. A27G A36C  0.822
26. A27G A57G  0.819
27. C28A C33A  0.818
28. C28T A57T  0.817
29. A27G C42T  0.817
30. A27T G46A  0.817
31. C28G C42T  0.815
32. C28G T29C  0.814
33. A27G A39T  0.814
34. C28A G38C  0.814
35. C28A C33G  0.813
36. A27G T44G  0.813
37. C28A T32G  0.812
38. A27G T35C  0.812
39. C28T  0.812
40. C28G A36G  0.812
41. A27G C42G  0.812
42. A27G T44A  0.812
43. C28G G46A  0.811
44. A27G T30C  0.811
45. A27G A57T  0.81
46. C28G G31C  0.81
47. A27G T44C  0.81
48. C28A C40A  0.809
49. C28A  0.809
50. A27G G47A  0.805
51. A27G A36G  0.805
52. A27G G34C  0.804
53. A27G G34T  0.804
54. A27T T30C  0.804
55. C28A G46T  0.803
56. C28G T29A  0.803
57. A27T C28G  0.802
58. A27T G47A  0.801
59. C28A A37T  0.801
60. A27G G55A  0.801
61. A27G C33A  0.8
62. A27T  0.8
63. A27G A39C  0.8
64. A27G A39G  0.799
65. C28A G38T  0.799
66. C28G G31A  0.799
67. C28T A57G  0.798
68. C28G G34T  0.798
69. A27G G31C  0.798
70. A27T C28T  0.798
71. C28G  0.797
72. A27T G46C  0.796
73. C28T A39T  0.796
74. C28T A39G  0.796
75. A27G T32A  0.795
76. C28G T32A  0.795
77. C28T A39C  0.795
78. C28G G34A  0.794
79. A27T A48G  0.794
80. C28A A37G  0.793
81. C28G G46C  0.792
82. C28G G38A  0.792
83. A27G A41G  0.791
84. A27G G31T  0.791
85. C28G A57G  0.791
86. C28A G46C  0.79
87. A27G G55T  0.79
88. C28G A57T  0.79
89. C28G T29G  0.789
90. A27G A41C  0.789
91. C28A G38A  0.789
92. A27G A48G  0.788
93. C28G A36T  0.788
94. C28T A48G  0.788
95. A27T A48T  0.787
96. C28G C33T  0.786
97. C28A A48G  0.784
98. C28G T32G  0.783
99. A27T A41T  0.779
100. C28A A37C  0.779
101. C28G G38C  0.778
102. A27G A57C  0.777
103. A27G G31A  0.776
104. A27T A41G  0.776
105. A27T T30A  0.775
106. C28A C40T  0.773
107. C28G A39G  0.772
108. C28G G38T  0.772
109. C28G G46T  0.771
110. A27G T32C  0.77
111. C28G A57C  0.77
112. A27G A56T  0.769
113. C28G G34C  0.768
114. A27G A56C  0.767
115. C28G A56T  0.767
116. A27T A41C  0.766
117. A27T T49A  0.76
118. C28G A39C  0.759
119. C28G A36C  0.759
120. A27T G46T  0.757
121. C28G C33A  0.757
122. C28A T32C  0.756
123. A27G A56G  0.755
124. C28G A39T  0.755
125. C28G A48G  0.751
126. C28A G47A  0.75
127. C28T A57C  0.744
128. C28T A56T  0.731
129. A27T A48C  0.729
130. C28A T49G  0.724
131. C28G T32C  0.723
132. C28G A56G  0.722
133. C28T A48T  0.709
134. C28G A56C  0.7
135. C28A T45A  0.698
136. A27G T45A  0.694
137. C28A T49A  0.679
138. A27T G50T  0.616
139. C28T A48C  0.606
140. C28A T49C  0.605
141. A27G G50T  0.596
142. C28T A56C  0.595
143. A27G G47C  0.583
144. C28T A56G  0.567
145. A27G G55C  0.554
146. A27T T49C  0.512
147. C28G C33G  0.505
148. A27G A48C  0.504
149. C28A T45C  0.499
150. C28A A48C  0.477
151. C28G A48T  0.47
152. C28A A48T  0.424
153. A27T G50A  0.412
154. C28G A48C  0.405
155. C28A G47T  0.361
156. A27G T45C  0.357
157. A27G G47T  0.329
158. C28A G47C  0.302
159. A27T T49G  0.287
160. A27G G50A  0.244
161. A27T G50C  0.238
162. A27G T45G  0.217
163. A27G A48T  0.195
164. A27G G50C  0.161
165. A27T G47T  0.0847
166. C28A T45G  0.0334
167. A27T G47C  0.0127
